From article doi:10.1101/2021.04.22.440356

Molecular target: human ubiquitin (15N-ubiquitin of the peptide titration) (human) (UniProt P0CG48)
Experiment: NMR titration

Sequence of short peptide from the YUH1 N-terminus (1-10) (P35127 whole entry, looked up, tested part not stated): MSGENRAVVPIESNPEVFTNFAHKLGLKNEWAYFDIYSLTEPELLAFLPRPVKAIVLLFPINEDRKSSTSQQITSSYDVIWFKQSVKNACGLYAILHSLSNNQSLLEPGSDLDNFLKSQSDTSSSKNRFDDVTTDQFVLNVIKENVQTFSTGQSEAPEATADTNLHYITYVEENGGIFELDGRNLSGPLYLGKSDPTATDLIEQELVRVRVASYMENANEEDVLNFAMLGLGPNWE

- Kd: 180 µM
Substance: short peptide from the YUH1 N-terminus (1-10) (from UniProt P35127 1-10)
